The assay addresses HLCS-NLuc (Myc-HLCS fused to the N-terminal fragment of firefly luciferase) (human) (UniProt P50747). Briefly: split reporter.
UniProt P50747, sequence (P50747 whole entry, the tested form may be a part): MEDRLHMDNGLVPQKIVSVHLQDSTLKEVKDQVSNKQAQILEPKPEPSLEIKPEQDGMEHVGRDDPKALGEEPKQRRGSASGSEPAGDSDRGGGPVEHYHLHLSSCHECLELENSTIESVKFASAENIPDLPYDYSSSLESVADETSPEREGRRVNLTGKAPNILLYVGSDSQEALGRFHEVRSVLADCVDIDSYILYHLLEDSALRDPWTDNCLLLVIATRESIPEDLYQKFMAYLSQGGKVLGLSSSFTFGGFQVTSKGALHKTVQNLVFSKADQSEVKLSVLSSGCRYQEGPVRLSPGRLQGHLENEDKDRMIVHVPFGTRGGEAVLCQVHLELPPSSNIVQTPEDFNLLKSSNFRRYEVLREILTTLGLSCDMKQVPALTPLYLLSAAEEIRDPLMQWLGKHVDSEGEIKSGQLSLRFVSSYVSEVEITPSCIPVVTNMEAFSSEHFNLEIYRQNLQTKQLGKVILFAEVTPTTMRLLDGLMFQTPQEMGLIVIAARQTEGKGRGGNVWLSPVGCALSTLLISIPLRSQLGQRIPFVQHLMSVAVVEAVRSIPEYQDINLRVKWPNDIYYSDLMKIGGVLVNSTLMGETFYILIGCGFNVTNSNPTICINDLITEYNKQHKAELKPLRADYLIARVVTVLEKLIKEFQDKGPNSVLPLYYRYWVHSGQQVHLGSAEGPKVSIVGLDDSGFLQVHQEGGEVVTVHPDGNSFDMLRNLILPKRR

Take “N-CoR-CT-CLuc (Myc-N-CoR C-terminal domain fused to the C-terminal fragment of firefly luciferase) (domain or fragment)”: the luminescence signal, fold of TP53-NLuc plus CDK3-CLuc (negative control) is 3.1 fold and the luminescence signal, fold of unfused NLuc plus CLuc (background control) was found to be 3.7 fold.
For the substance “HDAC1Δ31-CLuc (Myc-HDAC1Δ31 fused to the C-terminal fragment of firefly luciferase) (enzyme)”, the luminescence signal, fold of TP53-NLuc plus CDK3-CLuc (negative control) turned out to be 2.4 fold and the luminescence signal, fold of unfused NLuc plus CLuc (background control) was 2.9 fold.

For the origin of these results see PMC4743672.
